Experimental data as given in patent publication US20120114647A1 (GlaxoSmithKline, published 2012).
Changes are numbered by the printed parent chain.

T1: Cynomolgus monkey serum albumin (Cynomolgus monkey), A2V9Z4
T1 chain: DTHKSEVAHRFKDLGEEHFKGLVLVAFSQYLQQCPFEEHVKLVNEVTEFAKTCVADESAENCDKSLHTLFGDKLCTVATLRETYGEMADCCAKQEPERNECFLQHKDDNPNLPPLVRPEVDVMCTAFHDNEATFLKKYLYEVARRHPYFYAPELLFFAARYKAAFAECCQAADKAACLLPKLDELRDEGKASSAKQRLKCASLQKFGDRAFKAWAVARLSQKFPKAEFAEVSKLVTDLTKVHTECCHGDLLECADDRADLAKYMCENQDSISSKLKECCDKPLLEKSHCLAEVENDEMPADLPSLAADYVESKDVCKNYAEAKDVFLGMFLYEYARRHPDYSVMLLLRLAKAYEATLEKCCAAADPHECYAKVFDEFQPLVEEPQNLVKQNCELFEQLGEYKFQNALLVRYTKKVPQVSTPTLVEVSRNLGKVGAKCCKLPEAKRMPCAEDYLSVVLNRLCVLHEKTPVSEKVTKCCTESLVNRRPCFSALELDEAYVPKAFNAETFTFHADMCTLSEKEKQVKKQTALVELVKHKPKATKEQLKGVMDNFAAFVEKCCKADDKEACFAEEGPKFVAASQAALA

B1: DOM7r-201 (VHH)
VHH: EVQLLESGGGLVQPGGSLRLSCAASGFTFNHYTMGWVRQAPGKGLEWVSLIHPSGTVIYYADSVKGRFTISRDNSKNTLYLQMNSLRAEDTAVYYCAKWSSRAFDYWGQGTLVTVSS
B2: DOM7r-36-8 (VHH)
VHH: B1 VHH with K98R
B3: DOM7r-36-2 (VHH)
VHH: B1 VHH with L45R, I58T
B4: DOM7h-98-4 (VHH)
VHH: EVQLLESGGGLVQPGGSLRLSCAASGFTFGNYAMAWVRQAPGKGLEWVSSIDMVGIKTYYADSVKGRFTNSRDNSKNTLYLQMNSLRAEDTAVYYCARGFRIFDYWGQGTLVTVSS
B5: DOM7r-92-4 (VHH)
VHH: EVQLLESGGGLVQPGGSLRLSCAASGFTFDTSSMLWVRQAPGKGLEWVSVIHQSGTPTYYADSVKGRFTISRDNSKNTLYLQMNSLRAEDTAVYYCAKFPSTHGKFDYWGQGTLVTVSS
B6: DOM7r-31-14 (VHH)
VHH: EVQLLESGGGLVQPGGSLRLSCTASGFTFRHYRMGWVRQAPGKGLEWVSWIRPDGTFTYYADSVKGRFTISRDNSKNTLYLQMNSLRAEDTAVYYCAKSYMADRFDYWGQGTLVTVSS
B7: DOM7r-36 (VHH)
VHH: B1 VHH with I58T
notes: human VH dAb (AlbudAb)
B8: DOM7h-98 (VHH)
VHH: B4 VHH with N70I, R98K
notes: human VH dAb (AlbudAb)
B9: DOM7r-38 (VHH)
VHH: EVQLLESGGGLVQPGGSLRLSCAASGFTFDNNAMGWVRQAPGKGLEWVSTISANGNATYYADSVKGRFTISRDNSKDTLYLQMNSLRAEDTAVYYCAKGFRRFDYWGQGTLVTVSS
notes: human VH dAb (AlbudAb)
B10: DOM7h-112 (VHH)
VHH: EVQLLESGGGLVQPGGSLRLSCAASGFTFGGYVMGWVRQAPGKGLEWVSAINRFGSSTYYADSVKGRFTISRDNSKNTLYLQMNSLRAEDTAVYYCAKGSLRHFDYWGQGTLVTVSS
notes: human VH immunoglobulin single variable domain (dAb, AlbudAb), not camelid
B11: DOM7r-31 (VHH)
VHH: B6 VHH with A102G
notes: human VH dAb (AlbudAb)
B12: DOM7r-35 (VHH)
VHH: EVQLLESGGGLVQPGGSLRLSCAASGFTFSLYRMVWVRQAPGKGLEWVSMISQFGNQTYYADSVKGRFTISRDNSKNTLYLQMNSLRAEDTAVYYCAKVRSWDQTGGRRTFDYWGQGTLVTVSS
notes: human VH dAb (AlbudAb); propensity to dimerise by MALLS
B13: DOM7r-29 (VHH)
VHH: EVQLLESGGGLVQPGGSLRLSCAASGFTFKDYDMTWVRQAPGKGLEWVSMISSSGLWTYYADSVKGRFTISRDNSKNTLYLQMNSLRAEDTAVYYCAKGFRLFPRTFDYWGQGTLVTVSS
notes: human VH dAb (AlbudAb)

Molecular target: T2, Cynomolgus monkey serum albumin (Cynomolgus monkey, UniProt A2V9Z4 25-608)
T2 construct: also called CSA; cyno serum albumin
Experiment: SPR (BIAcore), eight-point dilution kinetics
Conditions: not given

Kd [µM]	Binder
0.058	B1
0.092	B2
0.18	B3
3.6	B4
0.098	B5

Molecular target: T3, rat serum albumin (rat, UniProt P02770 25-608)
T3 construct: also called RSA
Experiment: SPR (BIAcore), eight-point dilution kinetics
Conditions: not given

Kd [µM]	Binder
0.24	B1
0.21	B2
0.19	B3
0.58	B4
0.26	B5
0.046	B6

Molecular target: T4, human serum albumin (human, UniProt P02768 25-609)
T4 construct: also called HSA; human SA
Experiment: SPR (BIAcore), eight-point dilution kinetics
Conditions: not given

Kd [µM]	Binder
0.06	B1
0.067	B2
0.15	B3
2	B4
0.13	B5
0.058	B6

Molecular target: T5, mouse serum albumin (mouse, UniProt P07724 25-608)
T5 construct: also called MSA
Experiment: SPR (BIAcore), eight-point dilution kinetics
Conditions: not given

Kd [µM]	Binder
0.28	B1
0.52	B2
0.52	B3
0.81	B4
0.11	B5
0.006	B6

Molecular target: T2, Cynomolgus monkey serum albumin
Experiment: SPR (Biacore), cross-reactivity
Conditions: not given

binding result	Binder
binds	B7
binds	B8
binds	B9
binds	B10
binds	B11
binds	B12
binds	B13

Molecular target: T3, rat serum albumin
Experiment: SPR (Biacore), cross-reactivity
Conditions: not given

binding result	Binder
binds	B7
binds	B8
binds	B9
binds	B10
binds	B11
binds	B12
binds	B13

Molecular target: T4, human serum albumin
Experiment: SPR (Biacore), cross-reactivity
Conditions: not given

binding result	Binder
binds	B7
binds	B8
binds	B9
binds	B11
binds	B12
binds	B13

Molecular target: T5, mouse serum albumin
Experiment: SPR (Biacore), cross-reactivity
Conditions: not given

binding result	Binder
binds	B7
binds	B8
binds	B9
binds	B10
binds	B11
binds	B12
binds	B13

Molecular target: T1, Cynomolgus monkey serum albumin …
Experiment: SPR (BIAcore), eight-point dilution kinetics
Conditions: remark: other sources report otherwise

Kd [µM]	Binder
31	B6

Molecular target: T4, human serum albumin
Experiment: SPR (Biacore), cross-reactivity against four serum albumins
Conditions: not given

binding result	Binder
no binding	B10
